One molecule from patent publication CN104592390A (SHANGHAI ZHANGJIANG BIOTECHNOLOGY CO LTD; SHANGHAI HAISI …, dated 2015) can be followed below.

The target in this assay is T1, 乙型肝炎表面抗原(HBsAg) (Hepatitis B virus).
T1 chain: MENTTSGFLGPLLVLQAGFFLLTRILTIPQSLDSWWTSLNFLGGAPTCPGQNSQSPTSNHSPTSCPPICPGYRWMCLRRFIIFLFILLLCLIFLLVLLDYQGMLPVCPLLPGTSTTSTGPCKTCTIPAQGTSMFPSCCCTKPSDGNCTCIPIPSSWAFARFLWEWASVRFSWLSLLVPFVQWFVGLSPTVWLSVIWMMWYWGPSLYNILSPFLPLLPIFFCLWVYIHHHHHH
Briefly: ELISA affinity determination on HBsAg.

B1: C4D2-BsAb (bispecific antibody, human IgG1, kappa)
VH: not shown
VL: DIVMTQSPLSLSVTPGEPASISCRSSQSLLHRSGNNYLDWYLQKPGHSPQLLIYVGSNRASGVPDRFSGSGSGTEYTLKISRVEAEDVGVYYCMQALQTPRTFGQGTKLEIKRTVAAPSVFIFPPELVMTQSPSSLSASVGDRVTITCRASQGIYNSIAWYQQKPGKAPKLLLYSTSTLLSGVPSRFSGSGSGTDYTLTITNLQPEDFATYYCQQYFVTPETFGQGTKVEIKRTVAAPSVFIFPPSDEQLKSGTASVVCLLNNFYPREAKVQWKVDNALQSGNSQESVTEQDSKDSTYSLSSTLTLSKADYEKHKVYACEVTHQGLSSPVTKSFNRGEC
notes: Dual-variable-domain format; also called 双特异性抗体C4D2-BsAb
As for B1, binding was characterised by a dissociation constant (Kd) of 3.88 nM.
